Test results published in patent US20130052176, “APTAMER FOR NGF AND USE THEREOF” (SHIONOGI & CO., LTD, published 2013).

What was measured:
[1] = target: T1, NGF (nerve growth factor) (human, UniProt P01138 P01138:122-241); assay: cell_activity; neurite outgrowth, NGF 0.38 nM; not tested by SPR; TF-1 IC50 <0.1 nM; conditions: tags:; soluble in cell assays; chain copies: 2
Experimental: (§1) The neurite outgrowth inhibitory activity of the aptamer obtained in Example 1 was evaluated by using Neuroscreen-1 cell, which is a subclone of PC-12 cells.
(§2) The cells (2500 cells per well) were cultured for one day in an RPMI-1640 medium containing 2.5% horse serum and 1.25% fetal bovine serum in a 96 well flat-bottom plate coated with collagen type IV. […] Two days later, the cytoplasm and nuclei were stained using Cellomics Neurite Outgrowth Kit (manufactured by Thermo Scientific), and neurite length per cell was measured by Cellomics ArrayScan VTI (manufactured by Thermo Scientific). With the neurite length per cell obtained by the addition of NGF alone as inhibitory activity 0%, and that of the cell obtained by NGF free culture for 2 days as inhibitory activity 100%, the inhibitory activity of the aptamer was calculated from the neurite length per cell obtained by culturing with the addition of NGF and the aptamer in mixture. When the inhibitory activity was 0% or below, ‘0%’ is indicated.

[2] = target: T1, NGF (nerve growth factor); assay: cell_activity; neurite outgrowth, NGF 0.38 nM; SPR binding; TF-1 IC50 >0.3 nM; conditions: tags: amine-coupled to CM5 chip in SPR; soluble in cell assays; chain copies: 2
Experimental: as §1, §2

[3] = target: T1, NGF (nerve growth factor); assay: cell_activity; neurite outgrowth, NGF 0.38 nM; SPR binding; TF-1 IC50 0.078 nM; conditions: tags: amine-coupled to CM5 chip in SPR; soluble in cell assays; chain copies: 2
Experimental: as §1, §2

[4] = target: T1, NGF (nerve growth factor); assay: cell_activity; neurite outgrowth, NGF 0.38 nM; TF-1 IC50 0.065 nM; conditions: tags: human NGF; chain copies: 2
Experimental: as §1, §2

[5] = target: T1, NGF (nerve growth factor); assay: cell_activity; neurite outgrowth, NGF 0.38 nM; TF-1 IC50 0.075 nM; conditions: tags: human NGF; chain copies: 2
Experimental: as §1, §2

[6] = target: T1, NGF (nerve growth factor); assay: cell_activity; neurite outgrowth, NGF 0.38 nM; TF-1 IC50 0.348 nM; conditions: tags: human NGF; chain copies: 2
Experimental: as §1, §2

[7] = target: T1, NGF (nerve growth factor); assay: cell_activity; neurite outgrowth, NGF 1.1 nM; conditions: tags: human NGF; chain copies: 2
Experimental: as §1, §2

[8] = target: T1, NGF (nerve growth factor); assay: cell_activity; neurite outgrowth, NGF 1.1 nM; TF-1 IC50 6.2 nM; conditions: tags: human NGF; chain copies: 2
Experimental: as §1, §2

[9] = target: T1, NGF (nerve growth factor); assay: cell_activity; neurite outgrowth, NGF 1.1 nM; TF-1 IC50 5.3 nM; conditions: tags: human NGF; chain copies: 2
Experimental: as §1, §2

T1 sequence (P01138 122-241, one chain of several): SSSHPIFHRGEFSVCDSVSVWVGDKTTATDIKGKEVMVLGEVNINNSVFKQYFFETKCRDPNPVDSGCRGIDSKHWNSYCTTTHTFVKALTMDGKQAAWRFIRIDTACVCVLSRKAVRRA

B1: aptamer ID 26(17) (ssRNA)
RNA: GGGAGACUCGCCAGAGUUGAAAGAAACCCAAAUAAGUGUGCGCAC
modifications: 2'-F pyrimidines; 2'-OMe purines except 2'-OH at 3,5,19-22,24,26; 5' idT; 3' PEG40GS2 (amino C-6 linker)
[1]
  IC50: < 0.1 nM

B2: aptamer ID 26(36) (ssRNA)
RNA: B1 RNA
modifications: 2'-F pyrimidines except 2'-OMe at 7; 2'-OMe purines except 2'-OH at 3,19,20,26; PS between 3 and 4; 5' idT and 3' idT
[2]
  IC50: 0.211 nM

B3: aptamer ID 26(37) (ssRNA)
RNA: B1 RNA
modifications: 2'-F pyrimidines except 2'-OMe at 7; 2'-OMe purines except 2'-OH at 3,19,20,26; PS between 18 and 19; 5' idT and 3' idT
[2]
  IC50: 0.181 nM

B4: aptamer ID 26(53) (mixed)
RNA: B1 RNA
modifications: 2'-F pyrimidines except 2'-OMe at 7,8,9,11,12,17,18,33,37,45; 2'-OMe purines except 2'-OH at 3,19,20 and dA at 26; 5' idT and 3' idT
[3]
  IC50: 0.128 nM

B5: aptamer ID 26(61) (ssRNA)
RNA: B1 RNA
modifications: 2'-F pyrimidines except 2'-OMe at 7,8,9,11,12,17,18,33,37,45 and LNA at c29; 2'-OMe purines except 2'-OH at 3,19,20,26; 5' idT and 3' idT
[3]
  IC50: 0.112 nM

B6: aptamer ID 26(54) (mixed)
RNA: B1 RNA
modifications: 5' and 3' idT; 2'-OMe purines except ribo g3,g19,a20,a26; 2'-F c28,u39,c41,c43; dC27,dC29; other pyrimidines 2'-OMe
[4]
  IC50: 0.097 nM

B7: aptamer ID 26(55) (mixed)
RNA: B1 RNA
modifications: 5' and 3' idT; 2'-OMe purines except ribo g3,g19,a20,a26; 2'-F c27,c28,c41,c43; dC29,dT39; other pyrimidines 2'-OMe
[5]
  IC50: 0.087 nM

B8: aptamer ID 26(68) (ssRNA)
RNA: B1 RNA
modifications: 5' PEG80TS2 via ssH linker; 3' idT; 2'-F all pyrimidines; 2'-OMe purines except ribo g3,g19,a20,a26
[6]
  IC50: 0.128 nM

B9: aptamer ID 26(69) (ssRNA)
RNA: B1 RNA
modifications: 5' PEG40TS4 via ssH linker; 3' idT; 2'-F all pyrimidines; 2'-OMe purines except ribo g3,g19,a20,a26
[6]
  IC50: 0.157 nM

B10: aptamer ID 26(71) (ssRNA)
RNA: B1 RNA
modifications: 5' PEG80TS4 via C6 amino linker (Tb); 3' idT; 2'-OMe purines except ribo g3,g19,a20,a26; 2'-F c27,c28,c29,c41,c43; other pyrimidines 2'-OMe
[4]
  IC50: 0.279 nM

B11: aptamer ID 26(72) (mixed)
RNA: B1 RNA
modifications: 5' PEG80TS4 via C6 amino linker (Tb); 3' idT; 2'-OMe purines except ribo g3,g19,a20,a26; 2'-F c28,c41,c43; dC27,dC29; other pyrimidines 2'-OMe
[5]
  IC50: 0.219 nM

B12: aptamer ID 48 (ssRNA)
RNA: GGGAGAACUUCGACCAGAGUCGAUAACGAACAAAACUCCCAAAUAUGUGCGCAUAC
modifications: 2'-F all pyrimidines
[7]
  IC50: 1.8 nM

B13: aptamer ID 57 (mixed)
mixed: GGGAUAAAAAUAGAGTUUGATAAACACCUGUAUUAAAACCC
modifications: 5' cholesterol; 3' idT; dT16,dT21; 2'-F other pyrimidines and a37,a38; 2'-OMe purines except ribo a4,a7,g30
[7]
  IC50: < 3 nM

B14: aptamer ID 57(2) (mixed)
mixed: B13 mixed
modifications: as ID 57 (5' cholesterol; 3' idT; dT16,dT21; 2'-F other pyrimidines and a37,a38; 2'-OMe purines except ribo a4,a7,g30) plus PS between 16 and 17
[8]
  IC50: < 3 nM

B15: aptamer ID 57(6) (mixed)
mixed: B13 mixed
modifications: as ID 57 (5' cholesterol; 3' idT; dT16,dT21; 2'-F other pyrimidines and a37,a38; 2'-OMe purines except ribo a4,a7,g30) plus PS between 22 and 23
[9]
  IC50: < 3 nM

B16: aptamer ID 57(7) (mixed)
mixed: B13 mixed
modifications: as ID 57 (5' cholesterol; 3' idT; dT16,dT21; 2'-F other pyrimidines and a37,a38; 2'-OMe purines except ribo a4,a7,g30) plus PS between 23 and 24
[9]
  IC50: < 3 nM

B17: aptamer ID 57(8) (mixed)
mixed: B13 mixed
modifications: as ID 57 (5' cholesterol; 3' idT; dT16,dT21; 2'-F other pyrimidines and a37,a38; 2'-OMe purines except ribo a4,a7,g30) plus PS between 24 and 25
[8]
  IC50: < 3 nM
